Measurements taken from US11564995B2, “Peptide-nanoparticle conjugates” (Wisconsin Alumni Research Foundation, priority 2018, dated 2023).
Entries after “also recorded” stand apart in the source; their conditions may differ. Residues, ends and D or L forms follow the SMILES beside them. No end group written: not given here.

How the values were obtained:
PD-L1 proteins = target: T1, PD-L1 proteins (Homo sapiens, UniProt Q9NZQ7); experiment: Surface plasmon resonance (SPR) binding to immobilized PD-L1
T1 construct: purchased R&D systems
Method: Surface plasma resonance (SPR). SPR analysis was done using a BIAcore™ X (Pharmacia Biosensor AB, Uppsala, Sweden). In short, PD-L1 proteins (R&D systems) were immobilized onto carboxylated dextran-coated gold film surface of sensor chip (CM5 sensor chip, GE Healthcare) through EDC/NHS chemistry. 30 μL of sample solution was injected at a flow rate of […]. Sample solution was allowed to flow into both channels (channel 1 for reference, channel 2 with PD-L1), and the final SPR sensorgrams were obtained by subtracting the […].

[1] = tested on: 786-O cells (a PD-L1 overexpressing cell line); experiment: Fluorescence microscopy of cell interaction, 786-O cells; format: cell-based, Human
Method: (§1) Cell culture. Human renal cell carcinoma (RCC) cell line, 786-O, and breast cancer cell line, MCF-7, were utilized as high- and low-PD-L1 expressing cancer cell models, respectively. The human T lymphocyte cell line, Jurkat, was used in this study as a representative PD-1-expressing immune cells. 786-O and Jurkat T cells were cultured in RPMI media, while MCF-7 cells were grown in DMEM media. All cell culture media were supplemented with 1% (v/v) penicillin/streptomycin (P/S) and 10% (v/v) fetal bovine serum (FBS). Cells were incubated under humidified atmosphere containing 5% CO2 at 37° C.

[2] = tested on: MCF-7 cells (with a low level of PD-L1 expression); experiment: Fluorescence microscopy of cell interaction, MCF-7 cells; format: cell-based, Human; conditions: treated 1 h
Method: as §1

786-O cells = experiment: Chemosensitivity assay with doxorubicin in cancer cell/Jurkat T cell co-culture; format: cell-based, Human; conditions: 786-O cells co-cultured with Jurkat T cells, then DOX; FIG. 22
Method: as §1
Chemosensitivity Assay. Chemosensitivity assay was performed by measuring the synergistic cytotoxicity effect of immune checkpoint inhibitors, together with chemotherapeutic drug, doxorubicin. Cancer cells were plated in 96-well plates (5,000 cells/well) and incubated for 48 h. Cancer cells and Jurkat T cells were pre-treated with IFNγ and PHA/PMA as aforementioned. Cancer cells were then stained with calcein AM (1.5 μM), followed by 2 h treatment with ICIS. The cells were co-cultured for another 24 h in a 1:4 ratio, prior to doxorubicin (5 μM) treatment. The effect of each ICI on cancer cell survival following doxorubicin treatment (2 h) was analyzed based on changes in fluorescent intensity.

fβH2_mt/PD-L1 complex = fβH2_mt/PD-L1 complex (Homo sapiens, UniProt Q9NZQ7); experiment: Fluorescence polarization (FP) competition assay; format: binding; conditions: 10 nM, PD-L1, 2 μM, FIG. 15
Method: Fluorescence polarization (FP) assay. FP assay in PBS was used the PD-L1 binding and competition assays (λex=480 nm; λem=535 nm). Fluorescence anisotropy measurements were performed at room temperature, in a 384-well plate, and using an Infinite® M1000 Pro microplate reader (Tecan). A fβH2_mt/PD-L1 complex was used for the FP competition assay after 30 min incubation time and titrated with the competitors.

T1 sequence (Q9NZQ7 19-290): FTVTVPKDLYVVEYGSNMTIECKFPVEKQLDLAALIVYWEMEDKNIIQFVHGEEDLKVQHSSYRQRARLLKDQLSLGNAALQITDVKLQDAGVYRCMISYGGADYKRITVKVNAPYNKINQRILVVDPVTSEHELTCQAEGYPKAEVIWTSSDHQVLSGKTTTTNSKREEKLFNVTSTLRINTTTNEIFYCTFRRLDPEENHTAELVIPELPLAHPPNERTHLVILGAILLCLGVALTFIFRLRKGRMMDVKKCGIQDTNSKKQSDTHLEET
fβH2_mt/PD-L1 complex, sequence (Q9NZQ7 19-239 limits assumed, one chain of several): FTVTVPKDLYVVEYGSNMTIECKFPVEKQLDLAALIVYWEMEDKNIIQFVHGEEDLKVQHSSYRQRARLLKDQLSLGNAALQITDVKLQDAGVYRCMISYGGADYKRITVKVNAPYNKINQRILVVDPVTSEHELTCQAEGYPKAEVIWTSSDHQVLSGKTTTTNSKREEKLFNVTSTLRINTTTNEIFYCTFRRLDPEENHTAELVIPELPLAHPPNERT

Compound	kon (PD-L1 proteins; SPR, read-out: association rate constant (ka)) [M⁻¹ s⁻¹]	PD-L1 affinity relative to βH2_mt (PD-L1 proteins; SPR)	association rate constant (ka) (PD-L1 proteins; SPR)	PD-L1 affinity by SPR sensorgram (comparison in words) (PD-L1 proteins; immobilized PD-L1 proteins, FIG. 4 and 5)	cell interaction (Rhodamine fluorescence) ([1]; 786-O cells, treated 1 h)	PD-L1 selectivity (786-O vs MCF-7 cells) ([1]; fluorescence microscopy, 786-O vs MCF-7)	cell interaction (Rhodamine fluorescence) [2]	decrease of cell viability compared to cells treated with doxorubicin only (786-O cells) [%]	displacement of fβH2_mt from PD-L1 / complex integrity (fβH2_mt/PD-L1 complex)
CC(C)[C@H](NC(=O)[C@@H](NC(=O)[C@@H](N)Cc1c[nH]cn1)C(C)C)C(=O)N[C@@H](Cc1c[nH]c2ccccc12)C(=O)N[C@@H](Cc1c[nH]cn1)C(=O)N[C@@H](CCCNC(=N)N)C(=O)N[C@@H](CCC(=O)O)C(=O)N[C@@H](CO)C(=O)N1CCC[C@H]1C(=O)N[C@@H](CO)C(=O)NCC(=O)N[C@@H](CCC(N)=O)C(=O)N[C@H](C(=O)N[C@@H](CC(=O)O)C(=O)N[C@H](C(=O)N[C@@H](CCCCN)C(=O)N[C@@H](C)C(=O)N[C@@H](C)C(N)=O)[C@@H](C)O)[C@@H](C)O [βH2_mt, HVVWHRESPSGQTDTKAA] (H-HVVWHRESPSGQTDTKAA-NH2; N-terminus and C-terminus assumed)	1070								
G7-βH2_mt: βH2_mt peptides attached to the surface of generation seven (G7) PAMAM dendrimers, rhodamine labelled; about 30 peptides per dendrimer (HVVWHRESPSGQTDTKAA; also: attached to surface of G7 PAMAM dendrimers, about 30 peptides per dendrimer, rhodamine labelled)		five orders of magnitude higher	2.52×10^5	higher affinity to immobilized PD-L1 proteins than G7-βH1_mt; also recorded: higher than that of the wildtype βH2-dendrimer conjugate control (G7-βH2_wt)	strong cell interactions	high PD-L1 selectivity	interacted significantly less	8.4±3.8	dose-dependent displacement of fβH2_mt from PD-L1; also recorded: more effective competitiveness than aPDL1 antibodies
